Source: patent publication US20210380703A1
Changes are numbered by the printed parent chain.

B1: 368_A06 (antibody, V domains shown)
VH: EVQLLESGGGLVQPGGSLRLSCAASGFTFDSYSMHWVRQAPGKGLEWVAGINYNSGYKGYADSVKGRFTISRDNSKNTLYLQMNSLRAEDTAVYYCARAANWHDTHLDYWGQGTLVTVSS
VL: DIQMTQSPSSLSASVGDRVTITCRASQSILSYVNWYQQKPGKAPKLLIYAATSRHSGVPSRFSGSGSGTDFTLTISSLQPEDFATYYCQQSYNSPLTFGGGTKVEIK
B2: 374_D07 (antibody, V domains shown)
VH: B1 VH with H35N, A49S, G59S, A99G, H106A
VL: B1 VL with L30V, V33L, L47V, R54L, H55A
B3: 374_G09 (antibody, V domains shown)
VH: B1 VH with D30S, H35N, S55G, A99G
VL: B1 VL with L30V, S31R, V33L, L47V, R54L, H55A, N93E, S94L
B4: 368_A12 (antibody, V domains shown)
VH: B1 VH with A49S, G50S, H106A
VL: B1 VL with S31T, V33L, L47V, H55A, N93D
B5: 374_B03 (antibody, V domains shown)
VH: B1 VH with H35N, A49S, S55G, K58T, G59S, A99G, H106A
VL: B1 VL with S31T, V33L, L47V, H55A, N93D
B6: 374_B08 (antibody, V domains shown)
VH: B1 VH with H35N, S55G, K58T, G59S, A99G, H106A
VL: B1 VL with L30V, N93E, S94L
B7: 374_D10 (antibody, V domains shown)
VH: B1 VH with D30S, S33G, G50S, S55G, K58T, G59S, A99G
VL: B1 VL with S31T, H55A, N93D, S94N
B8: 374_G03 (antibody, V domains shown)
VH: B1 VH with D30S, S31D, H35N, A49S, S55G, K58T, G59S, A99G, H106A
VL: B1 VL with L30S, V33L, L47V, H55A, Y92D, N93D, S94T
B9: 374_F08 (antibody, V domains shown)
VH: B1 VH with H35N, A49S, S55G, G59S, A99G, H106A
VL: B1 VL with S31T, L47V, A51V, H55A, N93D, S94T
B10: 375_A12 (antibody, V domains shown)
VH: B1 VH with D30S, H35N, A49S, G59S, A99G, H106A
VL: B1 VL with V33L, L47V, A51V, H55A, N93E, S94T
B11: 375_B12 (antibody, V domains shown)
VH: B1 VH with H35N, S55G, G59S, A99G, H106A
VL: B1 VL with L30V, S31T, V33L, H55A, N93D, S94T
B12: 374_B05 (antibody, V domains shown)
VH: B1 VH with H35N, A49S, K58T, G59S, A99G, H106A
VL: B1 VL with L30V, V33L, N93E
B13: 374_D03 (antibody, V domains shown)
VH: B1 VH with H35N, S55G, G59S, A99G
VL: B1 VL with L30V, S31T, V33L, H55A, N93D, S94T
B14: 374_B10 (antibody, V domains shown)
VH: B1 VH with D30S, H35N, A49S, G50S, K58T, G59S, A99G
VL: B1 VL with S31T, L47V, R54L, H55A, N93D, S94T
B15: 374_H11 (antibody, V domains shown)
VH: B1 VH with D30S, H35N, A49S, S55G, K58T, G59S, A99G, H106A
VL: B1 VL with L30I, L47V, R54L, N93S, S94N
B16: 374_F07 (antibody, V domains shown)
VH: B1 VH with H35N, G50S, S55G, K58T, A99G
VL: B1 VL with V33L, L47V, A51V, R54L, H55A, N93E
B17: 375_A08 (antibody, V domains shown)
VH: B1 VH with D30S, H35N, S55G, K58T, A99G, H106A
VL: B1 VL with L30V, S31T, V33L, H55A, N93E
B18: 374_H01 (antibody, V domains shown)
VH: B1 VH with H35N, S55G, K58T, G59S, A99G
VL: B1 VL with V33L, L47V, R54L, H55A, N93E, S94N
B19: 374_G08 (antibody, V domains shown)
VH: B1 VH with H35N, A49S, S55G, K58T, G59S, A99G, H106A
VL: B1 VL with S31T, L47V, H55A, N93D
B20: 374_E10 (antibody, V domains shown)
VH: B1 VH with D30S, H35N, A49S, S55G, G59S, A99G, H106A
VL: B1 VL with V33L, N93D
B21: 374_C12 (antibody, V domains shown)
VH: B1 VH with D30S, H35N, S55G, G59S, A99G, H106A
VL: B1 VL with S31T, V33L, L47V, H55A, Y92D
B22: 374_C01 (antibody, V domains shown)
VH: B1 VH with S33G, H35N, A49S, G59S, A99G, H106A
VL: B1 VL with S31T, V33L, H55A, N93E, S94T
B23: 375_C04 (antibody, V domains shown)
VH: B1 VH with D30S, S31D, H35N, S55G, K58T, G59S, A99G, H106A
VL: B1 VL with S31T, V33L, L47V, H55A, N93E
B24: 368_B08 (antibody, V domains shown)
VH: B1 VH with S33G, H35N, A49S, G50S, S55G, K58T, G59S
VL: B1 VL with S31T, L47V, H55A, N93E, S94N
B25: 375_D10 (antibody, V domains shown)
VH: B1 VH with D30S, H35N, S55G, K58T, G59S, A99G, H106A
VL: B1 VL with S31T, H55A, Y92D, N93D
B26: 374_D05 (antibody, V domains shown)
VH: B1 VH with H35N, A49S, K58T, A99G
VL: B1 VL with S31T, V33L, H55A, N93D, S94T
B27: 375_D01 (antibody, V domains shown)
VH: B1 VH with D30S, H35N, A49S, S55G, K58T, A99G, H106A
VL: B1 VL with S31T, V33L, L47V, H55A, N93E, S94T
B28: 374_G10 (antibody, V domains shown)
VH: B1 VH with D30S, H35N, A49S, G50S, K58T, G59S, A99G
VL: B1 VL with L30V, V33L, L47V, A51V, H55A, N93D
B29: 374_C09 (antibody, V domains shown)
VH: B1 VH with S33G, H35N, A49S, G50S, S55G, A99G
VL: B1 VL with L30V, V33L, L47V, H55A, N93E, S94L
B30: 374_G11 (antibody, V domains shown)
VH: B1 VH with D30S, S31D, H35N, A49S, S55G, K58T, G59S, A99G, H106A
VL: B1 VL with L30I, L47V, R54L, H55A, N93D
B31: 375_A07 (antibody, V domains shown)
VH: B1 VH with H35N, A49S, G50S, K58T, A99G
VL: B1 VL with S31T, V33L, H55A, N93D, S94T
B32: 374_E12 (antibody, V domains shown)
VH: B1 VH with D30S, H35N, A49S, S55G, G59S, A99G, H106A
VL: B1 VL with V33L, L47V, H55A, N93D, S94N
B33: 374_D06 (antibody, V domains shown)
VH: B1 VH with D30S, H35N, A49S, S55G, K58T, G59S, A99G, H106A
VL: B1 VL with L47V, H55A, N93D
B34: 368_B03 (antibody, V domains shown)
VH: B1 VH with S31D, S33G, H35N, A49S, S55G, K58T, G59S, H106A
VL: B1 VL with S31T, V33L, L47V, R54L, H55A, Q90H, N93E, S94N

biological target: human Fc (human); experiment: ELISA, negative control

Row | Binder | optical density [OD]
1 | B1 | 0.483
2 | B2 | 0.176
3 | B3 | 0.223
4 | B4 | 0.425
5 | B5 | 0.166
6 | B6 | 0.188
7 | B7 | 0.329
8 | B8 | 0.193
9 | B9 | 0.211
10 | B10 | 0.174
11 | B11 | 0.223
12 | B12 | 0.168
13 | B13 | 0.216
14 | B14 | 0.17
15 | B15 | 0.169
16 | B16 | 0.176
17 | B17 | 0.205

Row | Binder | optical density [OD]
18 | B18 | 0.251
19 | B19 | 0.206
20 | B20 | 0.165
21 | B21 | 0.308
22 | B22 | 0.167
23 | B23 | 0.221
24 | B24 | 0.314
25 | B25 | 0.228
26 | B26 | 0.171
27 | B27 | 0.182
28 | B28 | 0.173
29 | B29 | 0.154
30 | B30 | 0.179
31 | B31 | 0.188
32 | B32 | 0.177
33 | B33 | 0.172
34 | B34 | 0.297
